Measured values: US20200216532A1 (Ablynx, published 2020)
Substitutions are numbered along the chain they refer to. Names and notes keep the numbering of the source.

B1: SEQ ID NO: 42 (VHH)
chain: EVQLVESGGGLVQPGGSLRLSCAASGRTFSYNPMGWFRQAPGKGRELVAAISRTGGSTYYPDSVEGRFTISRDNAKRMVYLQMNSLRAEDTAVYYCAAAGVRAEDGRVRTLPSEYTFWGQGTQVTVSSAAAEVQLVESGGGLVQPGGSLRLSCAASGRTFSYNPMGWFRQAPGKGRELVAAISRTGGSTYYPDSVEGRFTISRDNAKRMVYLQMNSLRAEDTAVYYCAAAGVRAEDGRVRTLPSEYTFWGQGTQVTVSSA
notes: Ex. 8
B2: SEQ ID NO: 47 (VHH)
VHH: EVQLVESGGGLVQPGGSLRLSCAASGSVFKINVMAWYRQAPGKGRELVAGIISGGSTSYADSVKGRFTISRDNAKNTLYLQMNSLRPEDTAVYYCAFITTESDYDLGRRYWGQGTLVTVSS
notes: Ex. 8
B3: SEQ ID NO: 38 (VHH)
chain: EVQLVESGGGLVQPGGSLRLSCAASGFTFSSYAMSWVRQAPGKGLEWVSGIKSSGDSTRYAGSVKGRFTISRDNAKNTLYLQMNSLRPEDTAVYYCAKSRVSRTGLYTYDNRGQGTLVTVSSGGGGSGGGGSGGGGSGGGGSEVQLVESGGGLVQPGGSLRLSCAASGRTFNNYAMGWFRQAPGKEREFVAAITRSGVRSGVSAIYGDSVKDRFTISRDNAKNTLYLQMNSLRPEDTAVYYCAASAIGSGALRRFEYDYSGQGTLVTVSSA
notes: Ex. 8
B4: SEQ ID NO: 45 (VHH)
VHH: EVQLVESGGGLVQAGGSLRLSCAASRSIGRLDRMGWYRHRTGEPRELVATITGGSSINYGDFVKGRFTISIDNAKNTVYLQMNNLKPEDTAVYYCNFNKYVTSRDTWGQGTQVTVSS
notes: Ex. 8; no addition
B5: SEQ ID NO: 71 (VHH)
VHH: B4 VHH with A14P, T41P, F62S, A74S, N84S, K86R, Q112L, S117G
notes: Ex. 8
B6: SEQ ID NO: 79 (VHH)
VHH: B4 VHH with A14P, T41P, F62S, A74S, N84S, K86R, Q112L
notes: Ex. 8
B7: SEQ ID NO: 75 (VHH)
VHH: B4 VHH with A14P, T41P, F62S, A74S, N84S, K86R, Q112L
notes: Ex. 8
B8: SEQ ID NO: 74 (VHH)
VHH: B4 VHH with A14P, T41P, F62S, A74S, N84S, K86R, Q112L
notes: Ex. 8
B9: SEQ ID NO: 76 (VHH)
VHH: B4 VHH with A14P, T41P, F62S, A74S, N84S, K86R, Q112L
notes: Ex. 8
B10: SEQ ID NO: 84 (VHH)
VHH: B4 VHH with A14P, T41P, F62S, A74S, N84S, K86R, Q112L, S116G
notes: Ex. 8
B11: SEQ ID NO: 68 (VHH)
VHH: B4 VHH with T41P, F62S, A74S, N84S, K86R
notes: Ex. 8
B12: SEQ ID NO: 73 (VHH)
VHH: B4 VHH with A14P, T41P, F62S, A74S, N84S, K86R, Q112L, S116G, S117G
notes: Ex. 8; S112G, S113G
B13: SEQ ID NO: 85 (VHH)
VHH: EVQLVESGGGSVQPGGSLRLSCAASRSIGRLDRMGWYRHRPGEPRELVATITGGSSINYGDSVKGRFTISIDNSKNTVYLQMNSLRPEDTAVYYCNFNKYVTSRDTWGQGTLVQVGG
notes: Ex. 8
B14: SEQ ID NO: 81 (VHH)
VHH: B13 VHH with S11V, Q114T, G116S, G117S
notes: Ex. 8
B15: SEQ ID NO: 77 (VHH)
VHH: B13 VHH with S11L, Q114T, G116S, G117S
notes: Ex. 8
B16: SEQ ID NO: 69 (VHH)
VHH: B13 VHH with S11L, L112Q, Q114T, G116S, G117S
notes: Ex. 8
B17: SEQ ID NO: 72 (VHH)
VHH: B13 VHH with S11L, Q114T
notes: Ex. 8
B18: SEQ ID NO: 65 (VHH)
VHH: B13 VHH with S11L, P14A, Q114T, G116S, G117S
notes: Ex. 8
B19: SEQ ID NO: 70 (VHH)
VHH: B13 VHH with S11L, G116S, G117S
notes: Ex. 8
B20: SEQ ID NO: 87 (VHH)
VHH: B13 VHH with Q114T
notes: Ex. 8
B21: SEQ ID NO: 86 (VHH)
VHH: B13 VHH with G116S, G117S
notes: Ex. 8
B22: SEQ ID NO: 82 (VHH)
VHH: B13 VHH with S11L, P87A, Q114T, G116S, G117S
notes: Ex. 8
B23: SEQ ID NO: 80 (VHH)
VHH: B13 VHH with S11L
notes: Ex. 8
B24: SEQ ID NO: 66 (VHH)
VHH: B13 VHH with Q114T, G116S, G117S
notes: Ex. 8
B25: SEQ ID NO: 67 (VHH)
VHH: B13 VHH with S11L, R86K, Q114T, G116S, G117S
notes: Ex. 8
B26: SEQ ID NO: 83 (VHH)
VHH: B13 VHH with S11L, T90A, Q114T, G116S, G117S
notes: Ex. 8
B27: SEQ ID NO: 88 (VHH)
VHH: B13 VHH with G116S, G117S
notes: Ex. 8; L11S, T110Q
B28: SEQ ID NO: 78 (VHH)
VHH: B13 VHH with S11L, Q13R, Q114T, G116S, G117S
notes: Ex. 8
B29: SEQ ID NO: 89 (VHH)
VHH: B13 VHH with P14A
notes: Ex. 8
B30: SEQ ID NO: 48 (VHH)
VHH: EVQLVESGGGLVQPGGSLRLSCIASGLPFSTKSMGWFRQAPGKEREFVARISPGGTSRYYGDFVKGRFAISRDNAKNTTWLQMNSLKAEDTAVYYCASGERSTYIGSNYYRTNEYDYWGTGTQVTVSS
notes: Ex. 8
B31: SEQ ID NO: 49 (VHH)
VHH: EVQLLESGGGLVQPGGSLRLSCAASGLPFSTKSMGWFRQAPGKGREFVSRISPGGTSRYYGDFVKGRFTISRDNSKNTLYLQMNSLRAEDTAVYYCASGERSTYIGSNYYRTNEYDYWGQGTLVTVSS
notes: Ex. 8; V5L, I23A, E44G, A49S, A68T, A74S, T78L, W79Y, K83R, T110Q, Q108L
B32: SEQ ID NO: 43 (VHH)
chain: DVQLVESGGGLVQPGGSLRLSCAASGFILDYYAIGWFRQAPGKEREGVLCIDASDDITYYADSVKGRFTISRDNSKNTVYLQMNSLRPEDTAVYYCATPIGLSSSCLLEYDYDYWGQGTLVTVSSGGGGSGGGSEVQLLESGGGLVQPGGSLRLSCAASGFTFRSFGMSWVRQAPGKGPEWVSSISGSGSDTLYADSVKGRFTISRDNSKNTLYLQMNSLRPEDTAVYYCTIGGSLSRSSQGTLVTVSSA
notes: Ex. 8

What was measured:
Experiment in all cases: SPR, interference factor immobilized
[1] = biological target: T1, purified interference factor(s), Donor A
T1 construct: also called interference in serum from Donor A

[2] = biological target: T2, purified interference factor(s), Donor B
T2 construct: also called interference in serum from Donor B

[3] = biological target: T3, purified interference factor(s), Donor C
T3 construct: also called interference in serum from Donor C

Row | Binder | % of binding of reference (=100%) [1] [%] | % of binding of reference (=100%) [2] [%] | % of binding of reference (=100%) [3] [%]
1 | B1 | 1 | 4 | –
2 | B2 | 1 | – | –
3 | B3 | 9 | 25 | 7
4 | B4 | 0 | – | –
5 | B5 | 88 | 105 | 87
6 | B6 | 1 | 17 | 13
7 | B7 | 1 | 11 | 16
8 | B8 | 4 | 41 | 33
9 | B9 | 2 | 17 | 20
10 | B10 | 84 | 50 | 83
11 | B11 | 38 | 115 | 49
12 | B12 | 6 | 8 | 9
13 | B13 | 46 | 5 | 42
14 | B14 | 94 | 50 | 89
15 | B15 | 2 | 12 | 13
16 | B16 | 80 | 120 | 84

Row | Binder | % of binding of reference (=100%) [1] [%] | % of binding of reference (=100%) [2] [%] | % of binding of reference (=100%) [3] [%]
17 | B17 | 70 | 47 | 56
18 | B18 | 73 | 121 | 64
19 | B19 | 90 | 105 | 98
20 | B20 | 51 | 5 | 39
21 | B21 | 76 | 6 | 86
22 | B22 | 96 | 80 | 100
23 | B23 | 65 | 5 | 58
24 | B24 | 81 | 29 | 84
25 | B25 | 102 | 117 | 96
26 | B26 | 56 | 73 | 61
27 | B27 | 1 | 5 | 11
28 | B28 | 96 | 96 | 100
29 | B29 | 14 | 5 | 17
30 | B30 | 0 | – | –
31 | B31 | 0 | – | –
32 | B32 | 3 | 20 | –
